Data on 94 variants can be found in the supplement of paper PMC10567573.

The labels stand for the following.
B1: C19orf51 (parent)
chain: FAPQTGARPSETFARFCKSQESAL
B2: ZNF207 (parent)
chain: FPSAGQAQAAVQGPVGTDFKPLNS
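Note: lentivirally expressed fusions sorted by FACS into six bins by GFP to DsRed ratio, PSI derived from sequencing read proportions per bin multiplied by bin number.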

In one data set the parent is B1. The data set is described as follows: protein stability index of a GFP-peptide fusion (GPS, HEK-293T) (PSI 1-6); higher = more stable. The settings on record: c terminus: a fixed tail appended.
FAPQTGPRPSETFARFCKSQESAL: the protein stability index is 2.07.
Consider FAPQTGFRPSETFARFCKSQESAL, for which the protein stability index is 2.41.
On the same count and under the same terms, the figure for FAPQTGKRPSETFARFCKSQESAL is 1.53; for FAPQTGCRPSETFARFCKSQESAL it is 2.92; for FAPQTGIRPSETFARFCKSQESAL it is 1.79.
Regarding FAPTTGARPSETFARFCKSQESAL, the protein stability index was 2.06.
For FAPCTGARPSETFARFCKSQESAL, the protein stability index was 2.85.
On to FAPFTGARPSETFARFCKSQESAL, for which the protein stability index amounted to 1.98.
The same measure, in the same setting: the figure for FAPDTGARPSETFARFCKSQESAL is 2.
For the variant FAPMTGARPSETFARFCKSQESAL, the protein stability index came to 1.65.
Regarding FAPRTGARPSETFARFCKSQESAL, the protein stability index worked out at 1.94.
In the case of FAPSTGARPSETFARFCKSQESAL, the protein stability index stood at 2.6.
For FAPHTGARPSETFARFCKSQESAL, the protein stability index came out at 2.21.
Same read-out and setting: the figure for FAPYTGARPSETFARFCKSQESAL is 2.21; for FAPETGARPSETFARFCKSQESAL it is 1.84; for FAPITGARPSETFARFCKSQESAL it is 2.27.
In the case of FAPLTGARPSETFARFCKSQESAL, the protein stability index is 4.02.
Still for that read-out and setting: the figure for FAPKTGARPSETFARFCKSQESAL is 1.99; for FAPNTGARPSETFARFCKSQESAL it is 1.69; for FAPPTGARPSETFARFCKSQESAL it is 1.28.
As to FAPQEGARPSETFARFCKSQESAL, the protein stability index turned out to be 2.42.
FAPQAGARPSETFARFCKSQESAL: the protein stability index worked out at 2.07.
In the case of FAPQYGARPSETFARFCKSQESAL, the protein stability index is 2.78.
With FAPQPGARPSETFARFCKSQESAL, the protein stability index amounted to 1.81.
For FAPQNGARPSETFARFCKSQESAL, the protein stability index worked out at 2.01.
As for FAPQGGARPSETFARFCKSQESAL, the protein stability index was 3.11.
Turning to FAPQDGARPSETFARFCKSQESAL, the protein stability index is 2.37.
FAPQQGARPSETFARFCKSQESAL: the protein stability index amounted to 2.47.
Same read-out and setting: the figure for FAPQTGARPSEEFARFCKSQESAL is 1.4.
Turning to FAPQTGARPSEDFARFCKSQESAL, the protein stability index amounted to 1.99.
For FAPQTGARMSETFARFCKSQESAL, the protein stability index was found to be 2.92.
On to FAPQTGARISETFARFCKSQESAL, for which the protein stability index is 2.25.
Take FAPQTGARCSETFARFCKSQESAL: the protein stability index was found to be 3.58.
For the variant FAPQTGARKSETFARFCKSQESAL, the protein stability index amounted to 2.47.
Same read-out and setting: as for FAPQTGARGSETFARFCKSQESAL, the figure is 2.57.
Same read-out and setting: the figure for FAPQTGARESETFARFCKSQESAL is 1.18; for FAPQTGARLSETFARFCKSQESAL it is 1.06; for FAPQTGARHSETFARFCKSQESAL it is 2.82.
As for FAPQTGARTSETFARFCKSQESAL, the protein stability index was found to be 3.29.
As for FAPQTGARNSETFARFCKSQESAL, the protein stability index came to 2.23.
FAPQTGARWSETFARFCKSQESAL: the protein stability index is 1.65.
FAPQTGARDSETFARFCKSQESAL: the protein stability index came to 1.23.
Regarding FAPQTGARRSETFARFCKSQESAL, the protein stability index was found to be 2.62.
As for FAPQTGARQSETFARFCKSQESAL, the protein stability index stood at 2.77.
Take FAPQTGARYSETFARFCKSQESAL: the protein stability index is 3.62.
For FAWQTGARPSETFARFCKSQESAL, the protein stability index came to 2.66.
Take FANQTGARPSETFARFCKSQESAL: the protein stability index was determined as 1.96.
On to FAEQTGARPSETFARFCKSQESAL, for which the protein stability index came out at 2.64.
As for FAKQTGARPSETFARFCKSQESAL, the protein stability index worked out at 2.51.
For the variant FACQTGARPSETFARFCKSQESAL, the protein stability index came out at 1.62.
Consider FALQTGARPSETFARFCKSQESAL, for which the protein stability index was 1.5.
For FAFQTGARPSETFARFCKSQESAL, the protein stability index amounted to 1.7.
Take FATQTGARPSETFARFCKSQESAL: the protein stability index turned out to be 1.98.
For FASQTGARPSETFARFCKSQESAL, the protein stability index worked out at 1.61.
Consider FAIQTGARPSETFARFCKSQESAL, for which the protein stability index worked out at 1.72.
Turning to FADQTGARPSETFARFCKSQESAL, the protein stability index stood at 2.79.
The same measure, in the same setting: the figure for FAQQTGARPSETFARFCKSQESAL is 2.72; for FAVQTGARPSETFARFCKSQESAL it is 1.95; for FAAQTGARPSETFARFCKSQESAL it is 1.05.

Variants of B2 are the subject of another data set. The data set is described as above. The settings on record: c terminus: a fixed tail appended.
With FPSAGQAQAAVQGPVGTDFKKLNS, the protein stability index came out at 3.69.
Same read-out and setting: the figure for FPSAGQAQAAVQGPVGTDFKTLNS is 3.17; for FPSAGQAQAAVQGPVGTDFKPLPS it is 3.03; for FPSAGQAQAAVQGPVGTDFKPLRS it is 3.91.
On the same count and under the same terms, the figure for FPSAGQAQAAVQGPVGTAFKPLNS is 3.31; for FPSAGQAQAVVQGPVGTDFKPLNS it is 2.99.
As to FPSAGQAQRAVQGPVGTDFKPLNS, the protein stability index came out at 3.47.
For the variant FPSAGQAQWAVQGPVGTDFKPLNS, the protein stability index was determined as 2.45.
On the same count and under the same terms, as for FPSAGQAQDAVQGPVGTDFKPLNS, the figure is 4.02; as for FPSRGQAQAAVQGPVGTDFKPLNS, 3.87; as for FPSAGQAQAAVQPPVGTDFKPLNS, 3.57.
Regarding FPPAGQAQAAVQGPVGTDFKPLNS, the protein stability index was 3.63.
On the same count and under the same terms, the figure for FPWAGQAQAAVQGPVGTDFKPLNS is 3.44.
Take FPVAGQAQAAVQGPVGTDFKPLNS: the protein stability index stood at 3.61.
Regarding FNSAGQAQAAVQGPVGTDFKPLNS, the protein stability index was 4.11.
YPSAGQAQAAVQGPVGTDFKPLNS: the protein stability index was determined as 3.29.
As to TPSAGQAQAAVQGPVGTDFKPLNS, the protein stability index came out at 5.3.
In the case of NPSAGQAQAAVQGPVGTDFKPLNS, the protein stability index was 4.98.
As to FPSAGQAQAAVQGPVGTDFDPLNS, the protein stability index is 4.07.
FPSAGQAQAAVQGPVRTDFKPLNS: the protein stability index worked out at 3.42.
Regarding FPSAGQAMAAVQGPVGTDFKPLNS, the protein stability index was found to be 2.72.
Consider FPSAGQADAAVQGPVGTDFKPLNS, for which the protein stability index turned out to be 3.87.
As for FPSAGQAQAAVQGPVGTDIKPLNS, the protein stability index came out at 3.64.
Turning to FPSAGQAQAAVQGPNGTDFKPLNS, the protein stability index is 3.88.
As for FPSAGQAQAAVHGPVGTDFKPLNS, the protein stability index amounted to 3.18.
Regarding FPSAGQAQAAVGGPVGTDFKPLNS, the protein stability index was 3.37.
Take FPSAGQAQAAVCGPVGTDFKPLNS: the protein stability index came out at 3.51.
For the variant FPSAGQAQAASQGPVGTDFKPLNS, the protein stability index is 4.27.
For the variant FPSAGQAQAAYQGPVGTDFKPLNS, the protein stability index came out at 3.
For the variant FPSAGLAQAAVQGPVGTDFKPLNS, the protein stability index came out at 2.81.
Turning to FPSAGFAQAAVQGPVGTDFKPLNS, the protein stability index was determined as 2.5.
Still for that read-out and setting: the figure for FPSAGQAQAAVQGPVGTDFKPTNS is 3.64; for FPSAGQAQAAVQGPVGTDFKPINS it is 3.71.
Regarding FPSAGQAQAAVQGYVGTDFKPLNS, the protein stability index came out at 3.44.
Regarding FPSAGQAQAAVQGKVGTDFKPLNS, the protein stability index was 2.8.
